Measurements reported in the Human Domainome abundance scans (Beltran et al. 2025).
± gives the uncertainty stated by the source.

B1: Zinc finger protein ZIC 2, residues 250 to 295; numbered along this chain, O95409 (parent)
chain: QCIKQELICKWIDPEQLSNPKKSCNKTFSTMHELVTHVSVEHVGGP

Variants of: B1
Experiment: abundance fitness (aPCA) (normalised: wild type 0, dead -1); higher = more abundant; growth selection in yeast, the domain comes from the species named
Conditions: Homo sapiens

Variant	abundance fitness
QCIKQELICKWIDPEQLMNPKKSCNKTFSTMHELVTHVSVEHVGGP	-0.348 ± 0.099
QCIKQELICKWIDPEQLCNPKKSCNKTFSTMHELVTHVSVEHVGGP	-0.06 ± 0.1
QCIKQELICKWIDPEQLRNPKKSCNKTFSTMHELVTHVSVEHVGGP	-0.198 ± 0.085
QCIKQELICKWIDPEQLWNPKKSCNKTFSTMHELVTHVSVEHVGGP	-0.265 ± 0.096
QCIKQELICKWIDPEQLNNPKKSCNKTFSTMHELVTHVSVEHVGGP	0.286 ± 0.12
QCIKQELICKWIDPEQLKNPKKSCNKTFSTMHELVTHVSVEHVGGP	0.282 ± 0.11
QCIKQELICKWIDPEQLHNPKKSCNKTFSTMHELVTHVSVEHVGGP	-0.389 ± 0.12
QCIKQELICKWIDPEQLGNPKKSCNKTFSTMHELVTHVSVEHVGGP	-0.427 ± 0.088
QCIKQELICKWIDPEQLLNPKKSCNKTFSTMHELVTHVSVEHVGGP	-0.145 ± 0.088
QCIKQELICKWIDPEQLENPKKSCNKTFSTMHELVTHVSVEHVGGP	-0.394 ± 0.11
QCIKQELICKWIDPEQLVNPKKSCNKTFSTMHELVTHVSVEHVGGP	-0.485 ± 0.092
QCIKQELICKWIDPEQLPNPKKSCNKTFSTMHELVTHVSVEHVGGP	-0.171 ± 0.11
QCIKQELICKWIDPEQLINPKKSCNKTFSTMHELVTHVSVEHVGGP	-0.409 ± 0.12
QCIKQELICKWIDPEQLFNPKKSCNKTFSTMHELVTHVSVEHVGGP	-0.15 ± 0.1
QCIKQELICKWIDPEQLANPKKSCNKTFSTMHELVTHVSVEHVGGP	-0.348 ± 0.092
QCIKQELICKWIDPEQLTNPKKSCNKTFSTMHELVTHVSVEHVGGP	0.118 ± 0.099
QCIKQELICKWIDPEQLQNPKKSCNKTFSTMHELVTHVSVEHVGGP	-0.36 ± 0.1
QCIKQELICKWIDPEQLDNPKKSCNKTFSTMHELVTHVSVEHVGGP	-0.125 ± 0.1
QCIKQELICKWIDPFQLSNPKKSCNKTFSTMHELVTHVSVEHVGGP	-0.23 ± 0.11
QCIKQELICKWIDPYQLSNPKKSCNKTFSTMHELVTHVSVEHVGGP	-0.14 ± 0.12
QCIKQELICKWIDPAQLSNPKKSCNKTFSTMHELVTHVSVEHVGGP	0.077 ± 0.088
QCIKQELICKWIDPPQLSNPKKSCNKTFSTMHELVTHVSVEHVGGP	-0.388 ± 0.11
QCIKQELICKWIDPVQLSNPKKSCNKTFSTMHELVTHVSVEHVGGP	-0.137 ± 0.087

Variant	abundance fitness
QCIKQELICKWIDPMQLSNPKKSCNKTFSTMHELVTHVSVEHVGGP	-0.079 ± 0.1
QCIKQELICKWIDPSQLSNPKKSCNKTFSTMHELVTHVSVEHVGGP	0.018 ± 0.088
QCIKQELICKWIDPIQLSNPKKSCNKTFSTMHELVTHVSVEHVGGP	0.051 ± 0.11
QCIKQELICKWIDPDQLSNPKKSCNKTFSTMHELVTHVSVEHVGGP	-0.254 ± 0.11
QCIKQELICKWIDPHQLSNPKKSCNKTFSTMHELVTHVSVEHVGGP	-0.233 ± 0.11
QCIKQELICKWIDPKQLSNPKKSCNKTFSTMHELVTHVSVEHVGGP	0.077 ± 0.11
QCIKQELICKWIDPRQLSNPKKSCNKTFSTMHELVTHVSVEHVGGP	-0.217 ± 0.085
QCIKQELICKWIDPQQLSNPKKSCNKTFSTMHELVTHVSVEHVGGP	-0.406 ± 0.13
QCIKQELICKWIDPGQLSNPKKSCNKTFSTMHELVTHVSVEHVGGP	-0.145 ± 0.085
QCIKQELICKWIDPCQLSNPKKSCNKTFSTMHELVTHVSVEHVGGP	-0.132 ± 0.11
QCIKQELICKWIDPLQLSNPKKSCNKTFSTMHELVTHVSVEHVGGP	0.104 ± 0.087
QCIKQELICKWIDPWQLSNPKKSCNKTFSTMHELVTHVSVEHVGGP	-0.206 ± 0.094
QCIKQELICKWIDPTQLSNPKKSCNKTFSTMHELVTHVSVEHVGGP	-0.31 ± 0.1
QCIKQELICKWTDPEQLSNPKKSCNKTFSTMHELVTHVSVEHVGGP	0.041 ± 0.097
QCIKQELICKWYDPEQLSNPKKSCNKTFSTMHELVTHVSVEHVGGP	-0.175 ± 0.14
QCIKQELICKWRDPEQLSNPKKSCNKTFSTMHELVTHVSVEHVGGP	-0.228 ± 0.086
QCIKQELICKWSDPEQLSNPKKSCNKTFSTMHELVTHVSVEHVGGP	-0.022 ± 0.09
QCIKQELICKWIDPEQQSNPKKSCNKTFSTMHELVTHVSVEHVGGP	-0.173 ± 0.1
QCIKQELICKWIDPEQVSNPKKSCNKTFSTMHELVTHVSVEHVGGP	0.11 ± 0.087
QCIKQELICKWIDPEQPSNPKKSCNKTFSTMHELVTHVSVEHVGGP	0.101 ± 0.097
QCIKQELICKWIDPEQFSNPKKSCNKTFSTMHELVTHVSVEHVGGP	0.143 ± 0.11
QCIKQELICKWIDPEQGSNPKKSCNKTFSTMHELVTHVSVEHVGGP	-0.363 ± 0.086
QCIKQELICKWIDPEQSSNPKKSCNKTFSTMHELVTHVSVEHVGGP	-0.111 ± 0.09

Variant	abundance fitness
QCIKQELICKWIDPEQNSNPKKSCNKTFSTMHELVTHVSVEHVGGP	0.124 ± 0.13
QCIKQELICKWIDPEQCSNPKKSCNKTFSTMHELVTHVSVEHVGGP	-0.245 ± 0.12
QCIKQELICKWIDPEQHSNPKKSCNKTFSTMHELVTHVSVEHVGGP	-0.662 ± 0.15
QCIKQELICKWIDPEQKSNPKKSCNKTFSTMHELVTHVSVEHVGGP	-0.071 ± 0.1
QCIKQELICKWIDPEQTSNPKKSCNKTFSTMHELVTHVSVEHVGGP	0.035 ± 0.097
QCIKQELICKWIDPEQASNPKKSCNKTFSTMHELVTHVSVEHVGGP	0.084 ± 0.092
QCIKQELICKWIDPEQWSNPKKSCNKTFSTMHELVTHVSVEHVGGP	-0.623 ± 0.093
QCIKQELICKWIDPEQDSNPKKSCNKTFSTMHELVTHVSVEHVGGP	0.176 ± 0.12
QCIKQELICKWIDPEQISNPKKSCNKTFSTMHELVTHVSVEHVGGP	0.067 ± 0.14
QCIKQELICKWIDPEQRSNPKKSCNKTFSTMHELVTHVSVEHVGGP	-0.304 ± 0.086
QCIKQELICKWIDPEQYSNPKKSCNKTFSTMHELVTHVSVEHVGGP	-0.564 ± 0.15
QCIKQELICKWIDPEQESNPKKSCNKTFSTMHELVTHVSVEHVGGP	0.306 ± 0.093
QCIKQELICKWIDPESLSNPKKSCNKTFSTMHELVTHVSVEHVGGP	0.073 ± 0.09
QCIKQELICKWIDPEALSNPKKSCNKTFSTMHELVTHVSVEHVGGP	-0.144 ± 0.091
QCIKQELICKWIDPEELSNPKKSCNKTFSTMHELVTHVSVEHVGGP	-0.397 ± 0.1
QCIKQELICKWIDPEYLSNPKKSCNKTFSTMHELVTHVSVEHVGGP	-0.211 ± 0.12
QCIKQELICKWIDPEDLSNPKKSCNKTFSTMHELVTHVSVEHVGGP	-0.074 ± 0.11
QCIKQELICKWIDPEILSNPKKSCNKTFSTMHELVTHVSVEHVGGP	-0.11 ± 0.1
QCIKQELICKWIDPEGLSNPKKSCNKTFSTMHELVTHVSVEHVGGP	-0.251 ± 0.086
QCIKQELICKWIDPELLSNPKKSCNKTFSTMHELVTHVSVEHVGGP	0.068 ± 0.087
QCIKQELICKWIDPEVLSNPKKSCNKTFSTMHELVTHVSVEHVGGP	-0.302 ± 0.091
QCIKQELICKWIDPEHLSNPKKSCNKTFSTMHELVTHVSVEHVGGP	-0.077 ± 0.13
QCIKQELICKWIDPETLSNPKKSCNKTFSTMHELVTHVSVEHVGGP	-0.051 ± 0.1

Variant	abundance fitness
QCIKQELICKWIDPEPLSNPKKSCNKTFSTMHELVTHVSVEHVGGP	-0.285 ± 0.11
QCIKQELICKWIDPENLSNPKKSCNKTFSTMHELVTHVSVEHVGGP	-0.414 ± 0.14
QCIKQELICKWIDPEMLSNPKKSCNKTFSTMHELVTHVSVEHVGGP	-0.25 ± 0.1
QCIKQELICKWIDPEWLSNPKKSCNKTFSTMHELVTHVSVEHVGGP	-0.069 ± 0.097
QCIKQELICKWIDPEKLSNPKKSCNKTFSTMHELVTHVSVEHVGGP	-0.335 ± 0.11
QCIKQELICKWIDPECLSNPKKSCNKTFSTMHELVTHVSVEHVGGP	-0.014 ± 0.11
QCIKQELICKWIDPEFLSNPKKSCNKTFSTMHELVTHVSVEHVGGP	-0.376 ± 0.12
QCIKQELICKWIDPERLSNPKKSCNKTFSTMHELVTHVSVEHVGGP	-0.432 ± 0.088
QCIKQELICKWIKPEQLSNPKKSCNKTFSTMHELVTHVSVEHVGGP	-0.66 ± 0.13
QCIKQELICKWICPEQLSNPKKSCNKTFSTMHELVTHVSVEHVGGP	-0.176 ± 0.12
QCIKQELICKWIWPEQLSNPKKSCNKTFSTMHELVTHVSVEHVGGP	-0.311 ± 0.093
QCIKQELICKWIVPEQLSNPKKSCNKTFSTMHELVTHVSVEHVGGP	-0.434 ± 0.091
QCIKQELICKWIPPEQLSNPKKSCNKTFSTMHELVTHVSVEHVGGP	-0.387 ± 0.11
QCIKQELICKWISPEQLSNPKKSCNKTFSTMHELVTHVSVEHVGGP	-0.352 ± 0.1
QCIKQELICKWIFPEQLSNPKKSCNKTFSTMHELVTHVSVEHVGGP	0.041 ± 0.14
QCIKQELICKWIMPEQLSNPKKSCNKTFSTMHELVTHVSVEHVGGP	-0.568 ± 0.12
QCIKQELICKWITPEQLSNPKKSCNKTFSTMHELVTHVSVEHVGGP	-0.81 ± 0.13
QCIKQELICKWIQPEQLSNPKKSCNKTFSTMHELVTHVSVEHVGGP	-0.492 ± 0.12
QCIKQELICKWIIPEQLSNPKKSCNKTFSTMHELVTHVSVEHVGGP	-0.559 ± 0.22
QCIKQELICKWIAPEQLSNPKKSCNKTFSTMHELVTHVSVEHVGGP	-0.101 ± 0.091
QCIKQELICKWIEPEQLSNPKKSCNKTFSTMHELVTHVSVEHVGGP	-0.235 ± 0.094
QCIKQELICKWIGPEQLSNPKKSCNKTFSTMHELVTHVSVEHVGGP	-0.328 ± 0.087
QCIKQELICKWIRPEQLSNPKKSCNKTFSTMHELVTHVSVEHVGGP	-0.442 ± 0.089

Variant	abundance fitness
QCIKQELICKWIHPEQLSNPKKSCNKTFSTMHELVTHVSVEHVGGP	-0.216 ± 0.15
QCIKQELICKWIDTEQLSNPKKSCNKTFSTMHELVTHVSVEHVGGP	-0.377 ± 0.11
QCIKQELICKWIDSEQLSNPKKSCNKTFSTMHELVTHVSVEHVGGP	-0.28 ± 0.092
QCIKQELICKWIDLEQLSNPKKSCNKTFSTMHELVTHVSVEHVGGP	-0.434 ± 0.09
QCIKQELICKWIDFEQLSNPKKSCNKTFSTMHELVTHVSVEHVGGP	-0.788 ± 0.15
QCIKQELICKWIDNEQLSNPKKSCNKTFSTMHELVTHVSVEHVGGP	-0.123 ± 0.13
QCIKQELICKWIDHEQLSNPKKSCNKTFSTMHELVTHVSVEHVGGP	-0.199 ± 0.13
QCIKQELICKWIDCEQLSNPKKSCNKTFSTMHELVTHVSVEHVGGP	-0.33 ± 0.11
QCIKQELICKWIDAEQLSNPKKSCNKTFSTMHELVTHVSVEHVGGP	-0.316 ± 0.094
QCIKQELICKWIDKEQLSNPKKSCNKTFSTMHELVTHVSVEHVGGP	-0.885 ± 0.12
QCIKQELICKWIDDEQLSNPKKSCNKTFSTMHELVTHVSVEHVGGP	-0.65 ± 0.13
QCIKQELICKWIDYEQLSNPKKSCNKTFSTMHELVTHVSVEHVGGP	-0.499 ± 0.13
QCIKQELICKWIDVEQLSNPKKSCNKTFSTMHELVTHVSVEHVGGP	-0.369 ± 0.095
QCIKQELICKWIDEEQLSNPKKSCNKTFSTMHELVTHVSVEHVGGP	-0.216 ± 0.11
QCIKQELICKWIDIEQLSNPKKSCNKTFSTMHELVTHVSVEHVGGP	-0.975 ± 0.2
QCIKQELICKWIDQEQLSNPKKSCNKTFSTMHELVTHVSVEHVGGP	-0.449 ± 0.12
QCIKQELICKWIDMEQLSNPKKSCNKTFSTMHELVTHVSVEHVGGP	-0.334 ± 0.12
QCIKQELICKWIDGEQLSNPKKSCNKTFSTMHELVTHVSVEHVGGP	-0.237 ± 0.085
QCIKQELICKWIDWEQLSNPKKSCNKTFSTMHELVTHVSVEHVGGP	-0.484 ± 0.096
QCIKQELICKWIDREQLSNPKKSCNKTFSTMHELVTHVSVEHVGGP	-0.2 ± 0.087
